Measured values from patent US20210025901A1 (CALIFORNIA INSTITUTE OF TECHNOLOGY, published 2021).
Bridge positions count the residues as written; N and C are the ends. Primed or numbered codes have the meaning given here. Ends that are not written are not given here. PEG3′ = not defined here

Legend:
[1] = biological target: T1, Plasmodium falciparum Histidine Rich Protein-2 (Pf.HRP-2) (Plasmodium falciparum); experiment: plot 'Affinity': fraction bound against [Pf.HRP2] (molar); protocol not described
T1 construct: The construct used in the assays is not described; the whole entry is named
T1 chain: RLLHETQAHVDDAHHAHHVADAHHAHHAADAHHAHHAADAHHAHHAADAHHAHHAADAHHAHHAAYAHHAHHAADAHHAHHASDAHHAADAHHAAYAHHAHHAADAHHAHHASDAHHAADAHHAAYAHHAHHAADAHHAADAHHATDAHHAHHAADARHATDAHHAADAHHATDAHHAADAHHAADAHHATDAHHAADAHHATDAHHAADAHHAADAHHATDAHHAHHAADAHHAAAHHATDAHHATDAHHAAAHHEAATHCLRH

[2] = biological target: Full-length His-tagged IL-17F protein (ab167911, Abcam) (human) (UniProt Q96PD4); experiment: fluorescence titration of IL17F protein (nM) against the biotinylated biligand; protocol not described for this figure
[3] = biological target: T2, Full-length His-tagged IL-17F protein (ab167911, Abcam) (human, UniProt Q96PD4 31-163); experiment: point ELISA, His-IL-17F vs His-IL-17A at 200 and 50 nM
T2 construct: Bought protein, called 'full-length'; also called human IL-17F protein; not shown: His tag
T2 chain: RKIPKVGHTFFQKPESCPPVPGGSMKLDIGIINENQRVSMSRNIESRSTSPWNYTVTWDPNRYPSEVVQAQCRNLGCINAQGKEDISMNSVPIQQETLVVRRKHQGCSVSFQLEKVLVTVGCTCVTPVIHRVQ

[4] = biological target: T3, His-tagged IL-17F epitope scrambled N-terminal to click handle (C48S) (also: His6 tag, position and spacer not given here); experiment: point ELISA: ligand on NeutrAvidin plate, His-tagged epitope peptide at 2 uM, anti-His-AP detection, no-epitope background subtracted
T3 construct: Chemically synthesized, His6 handle; residues N-terminal to C48S (FFQKPES) scrambled
T3 peptide: SQFEKFPSPPVPGGS

[5] = biological target: T1, Plasmodium falciparum Histidine Rich …; experiment: method not stated, FIG. 15; two Cy(YKYYR) joined by about a 1.5 nm linker
[6] = biological target: T2, Full-length His-tagged IL-17F protein …; experiment: point ELISA, His-IL-17F vs His-IL-17A at 100 nM
[7] = biological target: T4, Full-length His-tagged IL-17A protein (ab166882, Abcam) (human, UniProt Q16552 24-155); experiment: point ELISA, IL17F or IL17A at 100 nM, mean subtracted fluorescence; protocol not described for this panel
T4 construct: Bought protein; it may not be the whole protein; also called human IL-17A protein; not shown: His tag
T4 sequence: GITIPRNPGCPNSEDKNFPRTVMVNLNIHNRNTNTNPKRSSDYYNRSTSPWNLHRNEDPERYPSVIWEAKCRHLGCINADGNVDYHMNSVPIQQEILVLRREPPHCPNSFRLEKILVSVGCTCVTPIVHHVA

[8] = biological target: T4, Full-length His-tagged IL-17A protein …; experiment: point ELISA: ligand on NeutrAvidin plate, His-tagged protein at 100 nM, anti-His-AP detection, subtracted fluorescence
[9] = biological target: T2, Full-length His-tagged IL-17F protein …; experiment: method not stated, FIG. 12C; biligand with PEG3 linker
[10] = biological target: T2, Full-length His-tagged IL-17F protein …; experiment: fluorescence titration of IL17F protein (nM) against the biotinylated biligand; protocol not described for this figure; the arrow from the number points to the PEG3 entry of the legend box

B1: cy(YKYYR)(SEQ ID NO:29)-linker-cy(GWNVDL)(SEQ ID NO:30) biligand (designed binder)
peptide 1: YKYYR
peptide 2: GWNVDL
modifications: not fully specified (bridges)
notes: also called resultant biligand
Work on B1 yielded an EC50 [1] of 0.542 nM.

B2: Biotin-PEG3-Cy(RSYNK)(SEQ ID NO:28)-PEG5-Cy(RRATS)(SEQ ID NO:9) (designed binder)
peptide 1: RSYNK
peptide 2: RRATS
modifications: triazole (positions not given here); not fully specified (N-terminus, bridges); also: each chain triazole-cyclized macrocycle, positions not given here, macrocycles joined by PEG5 linker, attachment points not given here
With B2 the EC50 (read off the curve) [2] was 4 nM.

B3: Cy(RRATS)(SEQ ID NO:9)-PEG3-biotin (peptide)
peptide: RRATS-{PEG3′-biotin}
modifications: triazole N-C; also: flanking Pra and Az4 residues, sides not given here
notes: also called PEG3-biotin-modified Cy(RRATS)
With B3 the “selectivity for IL-17F over IL-17A” value [3] was 2 ratio and the binding result [4] was “no binding (tested: 2 uM)”.

B4: Cy(RRAQS)(SEQ ID NO:10)-PEG3-biotin (peptide)
peptide: RRAQS-{PEG3′-biotin}
modifications: triazole N-C; also: flanking Pra and Az4 residues, sides not given here
notes: also called PEG3-biotin-modified Cy(RRAQS)
With B4 the “selectivity for IL-17F over IL-17A” value [3] was 2 ratio and the binding result [4] was “no binding (tested: 2 uM)”.

B5: YKYYR (SEQ ID NO:29) dimer (designed binder)
peptide: YKYYR
modifications: not fully specified (bridges)
notes: also called two Cy(YKYYR) PCCs linked together with about a 1.5 nm long linker; linked biligand
B5 gave an EC50 [5] of 20 nM.

B6: Biotin-PEG3-Cy(RSYNK)(SEQ ID NO:28)-PEG2-Cy(RRATS)(SEQ ID NO:9) (designed binder)
peptide 1: RSYNK
peptide 2: RRATS
modifications: triazole (positions not given here); not fully specified (N-terminus, bridges); also: each chain triazole-cyclized macrocycle, positions not given here, macrocycles joined by PEG2 linker, attachment points not given here
For B6, the EC50 (read off the curve) [2] was 4 nM.

B7: Biotin-PEG3-Cy(RSYNK)(SEQ ID NO:28) (peptide)
peptide: RSYNK
modifications: triazole N-C; not fully specified (N-terminus, C-terminus); also: flanking Pra and Az4 residues, sides not given here
notes: also called PEG3-biotin-modified Cy(RSYNK)
With B7 the “selectivity for IL-17F over IL-17A” value [6] was 4 ratio.

B8: Biotin-PEG3-Cy(KKGWP)(SEQ ID NO:23) (peptide)
peptide: KKGWP
modifications: triazole N-C; not fully specified (N-terminus, C-terminus); also: flanking Pra and Az4 residues, sides not given here
notes: also called PEG3-biotin-modified Cy(KKGWP)
In the case of B8, the “selectivity for IL-17F over IL-17A” value [6] is reported as 4 ratio.

B9: Cy(QKHGP)(SEQ ID NO:15)-PEG3-biotin (peptide)
peptide: QKHGP
modifications: triazole (positions not given here); not fully specified (N-terminus, C-terminus, bridges); also: triazole cyclization via flanking Pra and Az4 residues, order not given here, PEG3-biotin, end not given here
notes: also called PEG3-biotin-modified Cy(QKHGP)
B9: no binding (tested: 100 nM) [7].

B10: Cy(TKHGP)(SEQ ID NO:16)-PEG3-biotin (peptide)
peptide: TKHGP
modifications: triazole (positions not given here); not fully specified (N-terminus, C-terminus, bridges); also: triazole cyclization via flanking Pra and Az4 residues, order not given here, PEG3-biotin, end not given here
notes: also called PEG3-biotin-modified Cy(TKHGP)
B10: no binding (tested: 100 nM) [8].

B11: Biotin-PEG3-Cy(RSYNK)(SEQ ID NO:28)-PEG3-Cy(RRATS)(SEQ ID NO:9) (designed binder)
peptide 1: RSYNK
peptide 2: RRATS
modifications: not fully specified (N-terminus, bridges); also: macrocycles joined by PEG3 linker (one PEGylated amino acid), attachment not given here, triazole to a chain's N/C-terminus
notes: Two macrocycles covalently joined by one PEGylated amino acid; also called biligand Cy(RSYNK)-PEG3-Cy(RRATS)
In the case of B11, the Kd [9] is reported as 0.25 nM and the EC50 [10] is reported as ~0.25 nM.
